Laboratory results published in US20090136475A1 (FRAUNHOFER GESELLSCHAFT ZUR FORDERUNG DER ANGEWANDTEN …, published 2009).

T1: CD30 molecule on the Hodgkin-derived CD30-positive cell line L540Cy (UniProt P28908 19-595, limits assumed)
T1 construct: whole, on cells; the cell lines are human-derived; also called CD30-positive cells
T1 sequence (looked up): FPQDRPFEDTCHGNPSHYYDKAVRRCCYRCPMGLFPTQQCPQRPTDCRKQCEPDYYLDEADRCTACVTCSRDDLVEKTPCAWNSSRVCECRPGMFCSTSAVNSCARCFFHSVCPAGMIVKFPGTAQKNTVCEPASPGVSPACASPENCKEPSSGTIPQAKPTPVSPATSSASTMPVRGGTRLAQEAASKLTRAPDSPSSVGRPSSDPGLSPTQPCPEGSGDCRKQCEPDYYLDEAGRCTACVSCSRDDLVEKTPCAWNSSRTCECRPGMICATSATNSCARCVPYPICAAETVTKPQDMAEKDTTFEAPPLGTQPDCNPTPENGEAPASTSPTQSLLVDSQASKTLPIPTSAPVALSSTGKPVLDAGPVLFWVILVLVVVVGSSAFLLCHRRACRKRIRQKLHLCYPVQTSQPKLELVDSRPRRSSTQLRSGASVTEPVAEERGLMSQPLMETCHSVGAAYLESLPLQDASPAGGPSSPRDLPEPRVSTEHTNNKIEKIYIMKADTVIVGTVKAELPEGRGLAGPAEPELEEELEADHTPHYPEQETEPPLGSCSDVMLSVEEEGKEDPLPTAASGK


Columns and labels:
[1] = biological target: CD30 molecule on the Hodgkin-derived CD30-positive cell line L540Cy (UniProt P28908); test: cell-based or functional assay
[2] = biological target: T1, CD30 molecule on the Hodgkin-derived …; test: flow cytometry on L540Cy cells, detection by anti-penta-His and FITC goat-anti-mouse IgG
Method: Cell binding activity of the recombinant complexes (immunokinases) expressed in E. coli BL21 Star™ (DE3) was evaluated using a FACSCalibur flow cytometry instrument and CellQuest software (Becton Dickinson, Heidelberg, Germany). Cells were stained with recombinant protein as described (25). Briefly, ten thousand events were collected for each sample, and analyses of Intact cells were performed using appropriate scatter gates to exclude cellular debris and aggregates. 5×10⁵ cells were incubated for 1 h on ice with 50 μl of bacterial protein extract at a concentration of 30-40 μg/ml or 100 μl of the immunokuinase containing supernatants respectively. The cells were washed with PBS buffer containing 0.2% w/v BSA and 0.05% w/v sodium azide (PBA) and then incubated for 30 min with anti-penta-His moab (Qiagen) diluted 1:2 in PBA buffer. Cells were washed and incubated with fluorescein-iso-thiocyanate (FITC)-labeled goat-anti-mouse IgG (DAKO Diagnostica, Hamburg, Germany) for 1 h at 4° C. After a final wash, the cells were treated with 2 μl 6.25 mg/ml propidiumiodide and subsequently analyzed on a FACScalibur (Becton Dickison, Heidelberg, Germany).

Row | binding result [2] | Molecule | calculated median IC50, growth inhibition of L540Cy cells, XTT-based colorimetric assay [1]
1 |  | recombinant complex (immunokinase) pMS-(L-DAPk2-Ki-4)-III/G, protein L-DAPk2-Ki-4-MH | 0.004 to 0.035 µg/mL
2 | binds | recombinant complex (immunokinase) pMT-Ki-4(scFv)-eEF-2K (other, Single-chain fusion: pelB signal peptide, enterokinase-cleavable His10 tag, anti-CD30 Ki-4 scFv, eukaryotic elongation factor-2 kinase; It was expressed in the periplasm of E. coli BL21 Star (DE3) and purified by IMAC and SEC) MGHHHHHHHHHHSSGHIDDDDKHMKLMAQPAMAQVKLQESGTELAKPGAAVKMSCKASGYTFTDYWMHWVKQRPGQGLEWIGYINPNTAYTDYNQKFKDKATLTADKSSSTAYMQLRSLTSEDSAVYYCAKKTTQTTWGFPFWGQGTTVTVSSGGGGSGGGGSGGGGSDIVLTQSPKSMAMSVGERVTLSCKASENVDSFVSWYQQKPGQSPKLLIYGASNRYTGVPDRFAGSGSGRDFTLTISSVQAEDLADYHCGQNYRYPLTFGAGTKLEIKRAAAELGGGGSMADEDLIFRLEGVDGGQSPRAGHDGDSDGDSDDEEGYFICPITDDPSSNQNVNSKVNKYYSNLTKSERYSSSGSPANSFHFKEAWKHAIQKAKHMPDPWAEFHLEDIATERATRHRYNAVTGEWLDDEVLIKMASQPFGRGAMRECFRTKKLSNFLHAQQWKGASNYVAKRYIEPVDRDVYFEDVRLQMEAKLWGEEYNRHKPPKQVDIMQMCIIELKDRPGKPLFHLEHYIEGKYIKYNSNSGFVRDDNIRLTPQAFSHFTFERSGHQLIVVDIQGVGDLYTDPQIHTETGTDFGDGNLGVRGMALFFYSHACNRICESMGLAPFDLSPRERDAVNQNTKLLQSAKTILRGTEEKCGSPRVRTLSGSRPPLLRPLSENSGDENMSDVTFDSLPSSPSSATPHSQKLDHLHWPVFSDLDNMASRDHDHLDNHRESENSGDSGYPSEKRGELDDPEPREHGHSYSNRKYESDEDSLGSSGRVCVEKWNLLNSSRLHLPRASAVALEVQRLNALDLEKKIGKSILGKVHLAMVRYHEGGRFCEKGEEWDQESAVFHLEHAANLGELEAIVGLGLMYSQLPHHILADVSLKETEENKTKGFDYLLKAAEAGDRQSMILVARAFDSGQNLSPDRCQDWLEALHWYNTALEMTDCDEGGEYDGMQDEPRYMMLAREAEMLFTGGYGLEKDPQRSGDLYTQAAEAAMEAMKGRLANQYYQKAEEAWAQMEE | 
